Source: patent US20140199709A1

Target: human mast cell β-tryptase (human) (UniProt Q15661)
Assay: sandwich ELISA, luminescence (CSPD): rabbit anti-human tryptase coated as capture, human tryptase titrated, AP-labeled G3 as detection; EC50 is of the tryptase concentration

UniProt Q15661, sequence (Q15661 31-275 limits assumed): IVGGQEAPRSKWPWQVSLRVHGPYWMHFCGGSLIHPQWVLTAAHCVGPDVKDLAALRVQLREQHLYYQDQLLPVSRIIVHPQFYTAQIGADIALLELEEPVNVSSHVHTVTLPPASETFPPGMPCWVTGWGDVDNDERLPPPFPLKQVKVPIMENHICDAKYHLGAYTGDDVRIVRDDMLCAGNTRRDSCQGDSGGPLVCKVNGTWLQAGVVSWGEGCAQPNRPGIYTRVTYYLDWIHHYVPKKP

EC50: 0.065 µg/mL
Substance: anti-tryptase antibody G3 (sc-33676; Santa Cruz Biotechnology, Inc.), alkaline phosphatase conjugated
